According to publication doi:10.1101/2025.09.16.670041 (bioRxiv, 2025):
Several values for one entry are separate records, joined by “and”; a condition that tells them apart may be missing. Equal entries are not always repeated. Where two headings read alike, the source gives them in different places. Values belong to the molecule of their own block, whether it stands above or below them. No end group written: not given here. fluorescein = fluorescein (N-terminal fluorescent label on the UBE3A peptide)

Legend:
[1] = molecular target: biotinylated MBP-fused HERC2 RLD2 domain (residues 2941-3342) (human) (UniProt O95714); experiment: native holdup assay
[2] = molecular target: T1, endogenous full-length HERC2 (human (endogenous in SH-SY5Y), UniProt O95714 1-4834); experiment: native holdup assay
T1 sequence (O95714 whole entry, the tested form may be a part): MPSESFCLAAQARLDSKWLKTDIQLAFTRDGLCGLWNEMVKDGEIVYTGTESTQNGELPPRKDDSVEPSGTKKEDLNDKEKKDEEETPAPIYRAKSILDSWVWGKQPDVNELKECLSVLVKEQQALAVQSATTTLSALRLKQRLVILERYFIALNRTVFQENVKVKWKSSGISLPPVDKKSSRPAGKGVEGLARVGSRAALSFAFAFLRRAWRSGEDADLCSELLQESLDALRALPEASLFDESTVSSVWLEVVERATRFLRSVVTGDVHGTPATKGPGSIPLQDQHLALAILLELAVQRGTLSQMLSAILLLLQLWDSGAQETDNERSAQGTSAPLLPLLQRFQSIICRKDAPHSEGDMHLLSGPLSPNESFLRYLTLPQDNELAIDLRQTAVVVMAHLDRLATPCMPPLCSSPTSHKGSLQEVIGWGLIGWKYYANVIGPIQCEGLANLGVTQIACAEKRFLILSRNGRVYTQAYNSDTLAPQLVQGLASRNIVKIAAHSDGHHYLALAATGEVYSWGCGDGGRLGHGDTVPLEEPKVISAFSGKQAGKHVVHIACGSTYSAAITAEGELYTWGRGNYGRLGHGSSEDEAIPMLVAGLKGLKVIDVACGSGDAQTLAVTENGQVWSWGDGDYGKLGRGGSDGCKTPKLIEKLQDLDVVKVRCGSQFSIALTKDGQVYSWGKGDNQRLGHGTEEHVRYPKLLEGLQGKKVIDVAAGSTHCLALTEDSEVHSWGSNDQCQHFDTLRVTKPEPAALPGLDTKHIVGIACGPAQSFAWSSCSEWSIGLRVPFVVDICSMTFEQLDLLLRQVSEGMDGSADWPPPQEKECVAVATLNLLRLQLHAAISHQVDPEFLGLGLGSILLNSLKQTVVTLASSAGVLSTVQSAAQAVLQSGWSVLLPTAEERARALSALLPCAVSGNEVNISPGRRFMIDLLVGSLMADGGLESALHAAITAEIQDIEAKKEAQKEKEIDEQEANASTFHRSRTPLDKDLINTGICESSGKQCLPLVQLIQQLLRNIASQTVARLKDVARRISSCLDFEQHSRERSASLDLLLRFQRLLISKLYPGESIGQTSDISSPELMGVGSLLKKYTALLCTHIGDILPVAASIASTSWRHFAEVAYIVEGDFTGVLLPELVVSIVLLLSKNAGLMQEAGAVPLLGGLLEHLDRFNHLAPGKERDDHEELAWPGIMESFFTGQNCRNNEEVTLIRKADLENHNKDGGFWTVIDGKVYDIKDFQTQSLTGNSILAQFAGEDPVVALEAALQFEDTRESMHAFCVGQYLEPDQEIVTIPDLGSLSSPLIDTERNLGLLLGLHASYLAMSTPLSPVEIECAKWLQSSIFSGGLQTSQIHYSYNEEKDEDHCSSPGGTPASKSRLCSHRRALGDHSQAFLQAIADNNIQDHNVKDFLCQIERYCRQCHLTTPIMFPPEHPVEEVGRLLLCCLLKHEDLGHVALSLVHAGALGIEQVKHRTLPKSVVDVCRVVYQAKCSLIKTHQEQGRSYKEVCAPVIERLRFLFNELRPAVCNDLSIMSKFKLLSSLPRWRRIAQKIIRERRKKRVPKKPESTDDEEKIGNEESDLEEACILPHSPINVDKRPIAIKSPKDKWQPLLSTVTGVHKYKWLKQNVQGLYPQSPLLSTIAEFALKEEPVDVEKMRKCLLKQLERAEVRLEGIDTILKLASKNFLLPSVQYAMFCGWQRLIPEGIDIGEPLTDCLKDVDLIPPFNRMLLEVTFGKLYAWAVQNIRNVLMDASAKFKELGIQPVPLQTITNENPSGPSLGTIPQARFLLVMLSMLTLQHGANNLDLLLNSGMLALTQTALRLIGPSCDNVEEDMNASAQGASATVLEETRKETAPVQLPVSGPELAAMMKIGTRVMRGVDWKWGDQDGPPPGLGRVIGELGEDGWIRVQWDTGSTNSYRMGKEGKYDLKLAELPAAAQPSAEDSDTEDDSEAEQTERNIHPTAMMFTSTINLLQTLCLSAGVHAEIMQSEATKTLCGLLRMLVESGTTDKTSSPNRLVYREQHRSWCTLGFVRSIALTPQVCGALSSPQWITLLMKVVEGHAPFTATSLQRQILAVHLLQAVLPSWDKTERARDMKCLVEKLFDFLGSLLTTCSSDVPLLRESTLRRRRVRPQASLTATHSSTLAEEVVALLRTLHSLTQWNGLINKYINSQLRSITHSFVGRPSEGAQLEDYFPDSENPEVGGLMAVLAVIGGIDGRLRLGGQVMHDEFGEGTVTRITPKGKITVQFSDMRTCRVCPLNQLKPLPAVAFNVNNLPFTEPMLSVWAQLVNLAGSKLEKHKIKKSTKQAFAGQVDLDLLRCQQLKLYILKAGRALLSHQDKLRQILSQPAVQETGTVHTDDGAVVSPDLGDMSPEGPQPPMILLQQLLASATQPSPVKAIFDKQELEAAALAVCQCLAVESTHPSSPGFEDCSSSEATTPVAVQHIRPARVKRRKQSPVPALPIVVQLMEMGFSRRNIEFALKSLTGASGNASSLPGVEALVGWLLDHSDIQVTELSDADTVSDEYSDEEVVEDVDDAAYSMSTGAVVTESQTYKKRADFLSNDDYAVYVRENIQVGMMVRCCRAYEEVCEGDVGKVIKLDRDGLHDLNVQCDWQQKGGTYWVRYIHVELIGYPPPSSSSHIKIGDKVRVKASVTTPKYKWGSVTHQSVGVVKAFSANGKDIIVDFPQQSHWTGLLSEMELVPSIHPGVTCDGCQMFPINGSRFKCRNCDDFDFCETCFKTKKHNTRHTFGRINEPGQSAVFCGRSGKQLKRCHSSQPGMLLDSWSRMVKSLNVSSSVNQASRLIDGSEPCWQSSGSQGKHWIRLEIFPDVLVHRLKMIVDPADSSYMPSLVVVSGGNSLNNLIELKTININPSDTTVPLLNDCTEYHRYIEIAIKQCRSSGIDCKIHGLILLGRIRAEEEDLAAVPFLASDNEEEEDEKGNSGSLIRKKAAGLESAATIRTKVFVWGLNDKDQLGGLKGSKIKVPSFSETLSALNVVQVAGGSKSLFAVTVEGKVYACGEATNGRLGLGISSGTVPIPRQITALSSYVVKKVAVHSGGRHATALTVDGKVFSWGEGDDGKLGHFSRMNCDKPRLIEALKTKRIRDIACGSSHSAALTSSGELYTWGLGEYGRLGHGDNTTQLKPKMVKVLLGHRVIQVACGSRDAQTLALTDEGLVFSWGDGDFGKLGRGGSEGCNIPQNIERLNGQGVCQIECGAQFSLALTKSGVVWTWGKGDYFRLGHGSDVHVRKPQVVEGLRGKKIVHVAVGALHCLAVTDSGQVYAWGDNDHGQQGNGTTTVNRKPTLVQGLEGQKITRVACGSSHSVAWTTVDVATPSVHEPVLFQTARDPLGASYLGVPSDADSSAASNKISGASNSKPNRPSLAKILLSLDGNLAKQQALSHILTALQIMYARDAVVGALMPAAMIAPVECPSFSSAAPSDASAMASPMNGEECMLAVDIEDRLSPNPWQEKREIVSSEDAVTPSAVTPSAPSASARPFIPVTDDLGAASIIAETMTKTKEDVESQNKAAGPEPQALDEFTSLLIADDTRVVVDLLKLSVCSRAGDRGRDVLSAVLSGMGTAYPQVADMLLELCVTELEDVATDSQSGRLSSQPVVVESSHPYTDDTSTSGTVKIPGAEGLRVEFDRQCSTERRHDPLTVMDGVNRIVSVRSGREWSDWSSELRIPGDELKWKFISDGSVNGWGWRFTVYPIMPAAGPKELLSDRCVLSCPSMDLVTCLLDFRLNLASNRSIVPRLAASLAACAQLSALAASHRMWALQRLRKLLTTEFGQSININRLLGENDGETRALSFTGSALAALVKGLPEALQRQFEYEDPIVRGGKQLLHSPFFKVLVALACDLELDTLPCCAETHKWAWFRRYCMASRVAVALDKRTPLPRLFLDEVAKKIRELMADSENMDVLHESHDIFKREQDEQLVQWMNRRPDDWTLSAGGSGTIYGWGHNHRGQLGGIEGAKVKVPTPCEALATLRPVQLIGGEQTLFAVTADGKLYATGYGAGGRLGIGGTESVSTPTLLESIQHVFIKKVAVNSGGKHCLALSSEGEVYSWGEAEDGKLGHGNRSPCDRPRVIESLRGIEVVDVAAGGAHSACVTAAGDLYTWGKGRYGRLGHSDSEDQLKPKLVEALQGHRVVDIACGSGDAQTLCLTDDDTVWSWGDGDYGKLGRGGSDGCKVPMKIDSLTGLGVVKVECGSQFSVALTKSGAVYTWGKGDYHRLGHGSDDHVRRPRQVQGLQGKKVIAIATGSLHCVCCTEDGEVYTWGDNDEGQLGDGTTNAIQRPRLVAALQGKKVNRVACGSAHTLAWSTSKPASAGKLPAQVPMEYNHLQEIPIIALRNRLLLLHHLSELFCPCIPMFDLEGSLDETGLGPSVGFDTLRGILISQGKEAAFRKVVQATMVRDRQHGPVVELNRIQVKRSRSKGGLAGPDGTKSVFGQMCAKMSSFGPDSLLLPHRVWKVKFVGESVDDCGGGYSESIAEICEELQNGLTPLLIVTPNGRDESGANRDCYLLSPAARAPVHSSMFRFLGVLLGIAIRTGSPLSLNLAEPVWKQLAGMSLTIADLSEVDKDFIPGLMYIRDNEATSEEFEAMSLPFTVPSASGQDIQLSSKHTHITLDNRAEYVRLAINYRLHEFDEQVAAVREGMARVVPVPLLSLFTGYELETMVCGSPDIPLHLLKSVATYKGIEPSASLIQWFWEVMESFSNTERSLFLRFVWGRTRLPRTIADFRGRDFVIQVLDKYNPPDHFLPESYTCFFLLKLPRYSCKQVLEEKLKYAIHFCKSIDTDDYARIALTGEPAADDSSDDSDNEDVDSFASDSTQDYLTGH

[3] = molecular target: T2, HERC2 RLD2 domain (residues 2941-3342), untagged (human, UniProt O95714 2941-3342); experiment: fluorescence polarisation
T2 sequence (looked up): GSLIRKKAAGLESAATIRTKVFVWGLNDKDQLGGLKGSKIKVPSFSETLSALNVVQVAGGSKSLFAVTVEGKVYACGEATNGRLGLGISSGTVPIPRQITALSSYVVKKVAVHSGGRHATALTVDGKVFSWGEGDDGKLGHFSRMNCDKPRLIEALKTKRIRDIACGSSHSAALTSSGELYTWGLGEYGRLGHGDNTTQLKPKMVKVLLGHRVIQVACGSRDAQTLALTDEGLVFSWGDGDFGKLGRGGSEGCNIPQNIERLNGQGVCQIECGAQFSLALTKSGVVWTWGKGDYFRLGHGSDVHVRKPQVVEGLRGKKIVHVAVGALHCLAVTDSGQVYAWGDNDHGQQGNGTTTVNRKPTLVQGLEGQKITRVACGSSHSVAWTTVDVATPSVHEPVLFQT

[4] = molecular target: T3, endogenous full-length UBE3A from mouse brain (mouse (endogenous in mouse brain), UniProt O08759 1-870); experiment: native holdup assay
T3 sequence (looked up): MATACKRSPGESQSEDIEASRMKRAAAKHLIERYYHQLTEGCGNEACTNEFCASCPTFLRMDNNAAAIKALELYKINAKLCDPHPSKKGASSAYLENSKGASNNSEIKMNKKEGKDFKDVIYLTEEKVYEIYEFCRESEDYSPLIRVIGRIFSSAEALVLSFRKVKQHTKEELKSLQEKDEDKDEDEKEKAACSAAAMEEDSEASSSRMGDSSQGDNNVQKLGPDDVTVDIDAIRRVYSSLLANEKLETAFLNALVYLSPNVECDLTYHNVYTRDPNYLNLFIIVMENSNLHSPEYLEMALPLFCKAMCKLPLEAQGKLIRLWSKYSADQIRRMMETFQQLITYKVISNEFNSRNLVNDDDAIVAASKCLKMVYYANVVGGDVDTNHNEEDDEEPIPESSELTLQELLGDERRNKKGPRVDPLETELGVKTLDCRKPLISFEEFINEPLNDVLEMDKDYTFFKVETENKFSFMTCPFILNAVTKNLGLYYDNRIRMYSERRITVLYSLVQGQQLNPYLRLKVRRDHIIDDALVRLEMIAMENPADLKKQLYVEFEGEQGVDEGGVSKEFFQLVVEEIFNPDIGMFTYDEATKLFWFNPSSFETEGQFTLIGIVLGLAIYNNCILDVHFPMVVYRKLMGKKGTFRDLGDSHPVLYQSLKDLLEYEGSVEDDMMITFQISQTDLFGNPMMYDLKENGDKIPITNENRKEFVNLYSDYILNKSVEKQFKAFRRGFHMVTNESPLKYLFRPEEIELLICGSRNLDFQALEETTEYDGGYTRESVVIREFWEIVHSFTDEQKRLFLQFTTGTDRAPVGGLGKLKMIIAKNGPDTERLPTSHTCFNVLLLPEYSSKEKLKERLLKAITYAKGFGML

[5] = molecular target: endogenous full-length DOCK10 (human (endogenous in SH-SY5Y), UniProt Q96BY6 1-2186); experiment: native holdup assay
[6] = molecular target: endogenous full-length PCM1 (human (endogenous in SH-SY5Y), UniProt Q15154 1-2024); experiment: native holdup assay
[7] = molecular target: T4, endogenous full-length ARID4A (human (endogenous in SH-SY5Y), UniProt P29374 1-1257); experiment: native holdup assay
T4 sequence (looked up): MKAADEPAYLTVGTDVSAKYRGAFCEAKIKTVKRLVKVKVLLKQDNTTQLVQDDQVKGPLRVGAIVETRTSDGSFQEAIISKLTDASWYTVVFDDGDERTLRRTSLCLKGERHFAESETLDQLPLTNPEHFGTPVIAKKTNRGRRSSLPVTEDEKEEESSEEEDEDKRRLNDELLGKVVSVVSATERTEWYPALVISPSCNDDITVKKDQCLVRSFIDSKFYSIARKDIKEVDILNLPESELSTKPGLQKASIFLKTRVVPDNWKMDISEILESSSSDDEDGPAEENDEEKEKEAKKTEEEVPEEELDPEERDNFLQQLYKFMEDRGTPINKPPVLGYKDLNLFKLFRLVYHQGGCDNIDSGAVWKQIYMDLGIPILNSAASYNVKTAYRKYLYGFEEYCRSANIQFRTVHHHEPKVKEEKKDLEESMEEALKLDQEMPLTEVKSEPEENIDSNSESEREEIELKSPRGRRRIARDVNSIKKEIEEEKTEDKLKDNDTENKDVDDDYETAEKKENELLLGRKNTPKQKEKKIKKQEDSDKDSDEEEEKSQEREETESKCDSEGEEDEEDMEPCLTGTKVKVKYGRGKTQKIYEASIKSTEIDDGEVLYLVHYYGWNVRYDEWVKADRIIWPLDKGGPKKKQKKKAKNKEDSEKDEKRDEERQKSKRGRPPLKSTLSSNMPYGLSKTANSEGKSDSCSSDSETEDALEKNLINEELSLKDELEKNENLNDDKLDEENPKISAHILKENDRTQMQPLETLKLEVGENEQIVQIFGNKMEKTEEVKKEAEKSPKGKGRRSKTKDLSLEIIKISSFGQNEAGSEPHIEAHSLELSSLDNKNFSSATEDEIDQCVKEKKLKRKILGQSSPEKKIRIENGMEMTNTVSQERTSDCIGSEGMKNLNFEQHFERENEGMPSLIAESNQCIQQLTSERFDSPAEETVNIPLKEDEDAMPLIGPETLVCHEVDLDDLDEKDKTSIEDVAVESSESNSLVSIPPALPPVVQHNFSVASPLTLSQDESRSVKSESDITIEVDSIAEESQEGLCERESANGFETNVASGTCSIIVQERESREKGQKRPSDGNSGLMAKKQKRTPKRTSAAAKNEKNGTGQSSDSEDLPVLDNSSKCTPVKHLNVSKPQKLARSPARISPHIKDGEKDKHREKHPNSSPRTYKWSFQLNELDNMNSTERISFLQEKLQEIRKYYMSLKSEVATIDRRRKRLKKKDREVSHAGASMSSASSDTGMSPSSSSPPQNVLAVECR

[8] = molecular target: endogenous full-length UBE3A from SH-SY5Y cells (human (endogenous in SH-SY5Y), UniProt Q05086 1-875); experiment: native holdup assay
[9] = molecular target: T1, endogenous full-length HERC2; experiment: native holdup assay; remark: listed apart in the source

B2: UBE3A peptide residues 150-200 (peptide, UniProt Q05086-2 150-200, looked up)
peptide: HTKEELKSLQAKDEDKDEDEKEKAACSAAAMEEDSEASSSRIGDSSQGDNN
binding result [3]: binds

Molecule: fluorescein-SLQAKDEDKDEDEKEKAA [UBE3A 18-aa linked to fluorescein]
binding result [3]: binds

B3: biotinylated MBP-fused HERC2 RLD2 domain (residues 2941-3342) (domain or fragment, human, UniProt O95714 2941-3342, looked up)
chain: T2 sequence (looked up)
modifications: biotin on the AviTag (in vivo biotinylation)
Kd [4]: ~100 nM | Kd [5]: 2600 ± 500 nM | Kd [6]: 260 ± 40 nM | Kd [7]: < 100 nM | Kd [8]: < 100 nM and ~100 nM

Molecule: AKDEDKDEDEKEKAA (peptide, UniProt Q05086-2 160-174, looked up) [UBE3A peptide residues 160-174]
Kd [3]: 6850 ± 290 nM

Molecule: HTKEELKSLQAKDEDKDEDEKEKAA (also: biotin, position not given here) [biotinylated UBE3A peptide containing amino acids 150-174]
Kd [9]: 340 ± 90 nM

Next, values leading:

Kd [1]: 100 nM
Molecule: endogenous full-length UBE3A from zebrafish embryos (enzyme)

Kd [1]: > 10000 nM
Molecule: endogenous full-length MYT1 (from UniProt Q01538 1-1121) (natural protein)

Kd [2]: 560 ± 150 nM
B1: biotinylated full-length MBP-fused UBE3A protein (enzyme, human, UniProt Q05086-2 1-852, looked up)
chain: MKRAAAKHLIERYYHQLTEGCGNEACTNEFCASCPTFLRMDNNAAAIKALELYKINAKLCDPHPSKKGASSAYLENSKGAPNNSCSEIKMNKKGARIDFKDVTYLTEEKVYEILELCREREDYSPLIRVIGRVFSSAEALVQSFRKVKQHTKEELKSLQAKDEDKDEDEKEKAACSAAAMEEDSEASSSRIGDSSQGDNNLQKLGPDDVSVDIDAIRRVYTRLLSNEKIETAFLNALVYLSPNVECDLTYHNVYSRDPNYLNLFIIVMENRNLHSPEYLEMALPLFCKAMSKLPLAAQGKLIRLWSKYNADQIRRMMETFQQLITYKVISNEFNSRNLVNDDDAIVAASKCLKMVYYANVVGGEVDTNHNEEDDEEPIPESSELTLQELLGEERRNKKGPRVDPLETELGVKTLDCRKPLIPFEEFINEPLNEVLEMDKDYTFFKVETENKFSFMTCPFILNAVTKNLGLYYDNRIRMYSERRITVLYSLVQGQQLNPYLRLKVRRDHIIDDALVRLEMIAMENPADLKKQLYVEFEGEQGVDEGGVSKEFFQLVVEEIFNPDIGMFTYDESTKLFWFNPSSFETEGQFTLIGIVLGLAIYNNCILDVHFPMVVYRKLMGKKGTFRDLGDSHPVLYQSLKDLLEYEGNVEDDMMITFQISQTDLFGNPMMYDLKENGDKIPITNENRKEFVNLYSDYILNKSVEKQFKAFRRGFHMVTNESPLKYLFRPEEIELLICGSRNLDFQALEETTEYDGGYTRDSVLIREFWEIVHSFTDEQKRLFLQFTTGTDRAPVGGLGKLKMIIAKNGPDTERLPTSHTCFNVLLLPEYSSKEKLKERLLKAITYAKGFGML
modifications: biotin on the AviTag (in vivo biotinylation)

Kd [3]: < 100 nM
Molecule: HTKEELKSLQAKDEDKDEDEKEKAA [non-labeled UBE3A peptide residues 150-174]
